Results as given in patent publication US20250326823A1.

Experiments:
[1] = biological target: SARS-CoV-2 WA1 spike (S) protein (SARS-CoV-2) (UniProt P0DTC2); test: cell-based or functional assay
[2] = biological target: SARS-CoV-2 spike (S) protein, WA1 (SARS-CoV-2) (UniProt P0DTC2); test: cell-based or functional assay

Row | Substance | pseudovirus neutralization IC50 [1] [µg/mL] | IC50, pseudovirus neutralization [2] [nM] | IC80, pseudovirus neutralization [2] [nM] | neutralization IC50 [2] [nM] | neutralization IC80 [2] [nM]
1 | AZD3152 (antibody) | 0.161 | 1.08 | 2.2 |  | 
2 | ADG20 (antibody) |  |  |  | 0.047 | 0.197
